The chains are these.
B1: S4 Fab displayed on M13 phage (V0350-2b-S4) (Fab, V domains shown)
VH: EVQLVESGGGLVQPGGSLRLSCAASGFTISGSWIHWVRQAPGKGLEWVAWIAPYSGATDYADSVKGRFTISADTSKNTAYLQMNSLRAEDTAVYYCAREGGLYWVFDYWGQGTLVTVSS
VL: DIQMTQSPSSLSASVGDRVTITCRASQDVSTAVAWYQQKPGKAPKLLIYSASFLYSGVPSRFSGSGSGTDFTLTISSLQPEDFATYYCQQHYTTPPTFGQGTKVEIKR
notes: Fab on phage: the heavy chain (VH-CH1) is fused to M13 cP3 and the light chain carries a gD tag; also called S4-Fab phage; S4 (Fab)-phage
B2: S4 IgG (full-length human IgG1; LPG3-humankappaG6 and LPG4-humanHC-S4), expressed in CHO cells (antibody, V domains shown)
VH: B1 VH
VL: DIQMTQSPSSLSASVGDRVTITCRASQDVSTAVAWYQQKPGKAPKLLIYSASFLYSGVPSRFSGSGSGTDFTLTISSLQPEDFATYYCQQSYTTPPTFGQGTKVEIKR
notes: also called S4 antibody
B3: human STOP-1 S31-K243 with C-terminal His tag, baculovirus expressed (ligand, not shown: small tags and cut ends)
chain: SEIPKGKQKAQLRQREVVDLYNGMCLQGPAGVPGRDGSPGANGIPGTPGIPGRDGFKGEKGECLRESFEESWTPNYKQCSWSSLNYGIDLGKIAECTFTKMRSNSALRVLFSGSLRLKCRNACCQRWYFTFNGAECSGPLPIEAIIYLDQGSPEMNSTINIHRTSSVEGLCEGIGAGLVDVAIWVGTCSDYPKGDASTGWNSVSRIIIEELPK
notes: Primarily trimeric by light scattering; also called S31-K243-His; S31humanSTOP-1-pAcGP67B
B4: human STOP-1 delta-THD (residues 1-54, 94-243, plus His), expressed in CHO-psgb cells (ligand)
chain: SEIPKGKQKAQLRQREVVDLYNGMLRESFEESWTPNYKQCSWSSLNYGIDLGKIAECTFTKMRSNSALRVLFSGSLRLKCRNACCQRWYFTFNGAECSGPLPIEAIIYLDQGSPEMNSTINIHRTSSVEGLCEGIGAGLVDVAIWVGTCSDYPKGDASTGWNSVSRIIIEELPKHHHHHHHH
notes: also called ΔTHDh762HIP; M1-M54 fused to L94-K243-His
B5: human STOP-1, full length, C-terminal 8xHis tag (h762HIP; M1-K243-His), expressed in CHO-psgb cells (ligand)
chain: SEIPKGKQKAQLRQREVVDLYNGMCLQGPAGVPGRDGSPGANGIPGTPGIPGRDGFKGEKGECLRESFEESWTPNYKQCSWSSLNYGIDLGKIAECTFTKMRSNSALRVLFSGSLRLKCRNACCQRWYFTFNGAECSGPLPIEAIIYLDQGSPEMNSTINIHRTSSVEGLCEGIGAGLVDVAIWVGTCSDYPKGDASTGWNSVSRIIIEELPKHHHHHHHH
notes: The secreted protein purified from medium lacks the signal peptide; Light scattering: about 58% hexamer and 42% trimer; also called UNQ762; full length form
B6: human STOP-1 short form (L94-K243) with C-terminal His tag, baculovirus expressed (ligand, not shown: small tags and cut ends)
chain: LRESFEESWTPNYKQCSWSSLNYGIDLGKIAECTFTKMRSNSALRVLFSGSLRLKCRNACCQRWYFTFNGAECSGPLPIEAIIYLDQGSPEMNSTINIHRTSSVEGLCEGIGAGLVDVAIWVGTCSDYPKGDASTGWNSVSRIIIEELPK
notes: also called #94-243; L94-K243-His
B7: human STOP-1 E89-K243 with C-terminal His tag, baculovirus expressed (ligand, not shown: small tags and cut ends)
chain: EKGECLRESFEESWTPNYKQCSWSSLNYGIDLGKIAECTFTKMRSNSALRVLFSGSLRLKCRNACCQRWYFTFNGAECSGPLPIEAIIYLDQGSPEMNSTINIHRTSSVEGLCEGIGAGLVDVAIWVGTCSDYPKGDASTGWNSVSRIIIEELPK
notes: A mix of trimeric and hexameric complexes by light scattering; also called E89-K243-His; E89humanSTOP-1-pAcGP67B
B8: S9 Fab displayed on M13 phage (V0350-2b-S9) (Fab)
light: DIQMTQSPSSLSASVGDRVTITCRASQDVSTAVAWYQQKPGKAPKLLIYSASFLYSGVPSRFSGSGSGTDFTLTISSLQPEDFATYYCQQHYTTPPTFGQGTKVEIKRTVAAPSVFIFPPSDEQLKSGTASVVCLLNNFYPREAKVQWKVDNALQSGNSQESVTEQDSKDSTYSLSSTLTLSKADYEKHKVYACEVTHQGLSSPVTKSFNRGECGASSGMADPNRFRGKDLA
heavy: AYAEVQLVESGGGLVQPGGSLRLSCAASGFTISNYGIHWVRQAPGKGLEWVGRISPSNGSTYYADSVKGRFTISADTSKNTAYLQMNSLRAEDTAVYYCAKCSVRFAYWGQGTLVTVSSASTKGPSVFPLAPSSKSTSGGTAALGCLVKDYFPEPVTVSWNSGALTSGVHTFPAVLQSSGLYSLSSVVTVPSSSLGTQTYICNVNHKPSNTKVDKKVEPKSCDKTHL
notes: also called S9 (Fab)-phage
B9: S7 F(ab)'2 displayed on M13 phage (V0350-4-S7) (other)
light: SDIQMTQSPSSLSASVGDRVTITCRASQDVSTAVAWYQQKPGKAPKLLIYSASFLYSGVPSRFSGSGSGTDFTLTISSLQPEDFATYYCQQSYTTPPTFGQGTKVEIKRTVAAPSVFIFPPSDEQLKSGTASVVCLLNNFYPREAKVQWKVDNALQSGNSQESVTEQDSKDSTYSLSSTLTLSKADYEKHKVYACEVTHQGLSSPVTKSFNRGECGASSGMADPNRFRGKDLA
heavy: AYAEVQLVESGGGLVQPGGSLRLSCAASGFTISGSDIHWVRQAPGKGLEWVGRISPYGGNTNYADSVKGRFTISADTSKNTAYLQMNSLRAEDTAVYYCARVGGLKLLFDYWGQGTLVTVSSASTKGPSVFPLAPSSKSTSGGTAALGCLVKDYFPEPVTVSWNSGALTSGVHTFPAVLQSSGLYSLSSVVTVPSSSLGTQTYICNVNHKPSNTKVDKKVEPKSCDKTHG
notes: also called S7-F(ab)'2-phage; F(ab)'2-S7 phage
B10: S16 F(ab)'2 displayed on M13 phage (V0350-4-S16) (other)
light: B9 light
heavy: AYAEVQLVESGGGLVQPGGSLRLSCAASGFTITNSDIHWVRQAPGKGLEWVATIYPYGGYTYYADSVKGRFTISADTSKNTAYLQMNSLRAEDTAVYYCARGGGMDGYVMDYWGQGTLVTVSSASTKGPSVFPLAPSSKSTSGGTAALGCLVKDYFPEPVTVSWNSGALTSGVHTFPAVLQSSGLYSLSSVVTVPSSSLGTQTYICNVNHKPSNTKVDKKVEPKSCDKTHG
notes: also called S16-F(ab)'2-phage; F(ab)'2-S16 phage
B11: F5 F(ab)'2 displayed on M13 phage (V0350-4-F5) (other)
light: B9 light
heavy: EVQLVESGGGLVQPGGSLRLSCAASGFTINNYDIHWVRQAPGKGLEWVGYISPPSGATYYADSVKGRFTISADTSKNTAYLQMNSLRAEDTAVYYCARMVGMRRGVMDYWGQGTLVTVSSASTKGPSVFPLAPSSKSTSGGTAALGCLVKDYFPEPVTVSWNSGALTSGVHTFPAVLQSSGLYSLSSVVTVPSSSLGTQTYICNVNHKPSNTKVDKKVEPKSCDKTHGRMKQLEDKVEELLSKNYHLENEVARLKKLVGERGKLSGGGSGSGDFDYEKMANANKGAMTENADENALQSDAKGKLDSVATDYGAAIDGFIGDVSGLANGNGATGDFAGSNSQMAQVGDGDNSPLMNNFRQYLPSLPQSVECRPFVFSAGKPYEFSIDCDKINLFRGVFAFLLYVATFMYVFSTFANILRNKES
notes: also called F5-F(ab)'2-phage; F(ab)'2-F5 phage

Data set [1] addresses B6. As to the kind of experiment: solution competition phage ELISA (762 S/S): short form coated, phage pre-incubated with short form STOP-1 in solution; IC50 is the STOP-1 concentration. The method, then:
(§1) The wells were blocked by adding 65 ul 1% BSA for 30 minutes followed by 40 ul 1% Tween20 for another 30 minutes. Next, the wells were washed with PBS—0.05% Tween20 5 times. Various dilutions of F(ab) or F(ab)′₂ phage down to 0.1 O.D./ml in ELISA buffer (PBS—0.1% BSA and 0.05% Tween20) were added to the wells for 15 minutes at room temperature. The wells were then washed with PBS—0.05% Tween20 at least three times. 75 ul of HRP-conjugated anti-M13 antibody (Amersham, 1/5000 dilution with ELISA buffer) per well was added and incubated at room temperature for 30 minutes. The wells were washed again with PBS—0.05% Tween20 at least five times. Next, 100 ul/well of a 1:1 ratio of 3,3′,5,5′-tetramethylbenzidine (TMB) Peroxidase substrate and Peroxidase Solution B (H₂O₂) ((Kirkegaard-Perry Laboratories (Gaithersburg, Md.)) was added to the well and incubated for 5 minutes at room temperature. The reaction was stopped by adding 100 ul 1M Phosphoric Acid (H3PO₄) ((Kirkegaard-Perry Laboratories (Gaithersburg, Md.)) to each well. The optical density of the color in each well was determined using a standard ELISA plate reader at 450 nm. The dilutions of phage were plotted against the O.D. readings.
(§2) Third, a competition ELISA was performed. 96-well Nunc Maxisorp plates were coated with full length or short form human STOP-1 (2 ug/ml in PBS) at 4° C. overnight or at room temperature for 2 hours. The wells were blocked by adding 65 ul 1% BSA for 30 minutes followed by 40 ul 1% Tween20 for another 30 minutes. The wells were washed with PBS—0.05% Tween20 5 times. […] The unbound phage was assayed by transferring 75 ul of the well mixture to second 96-well plate pre-coated with full length or short form human STOP-1 and incubating at room temperature for 15 minutes. The wells of the second plate were washed with PBS—0.5% Tween20 at least three times. 75 ul of HRP-conjugated anti-M13 antibody ( 1/5000 dilution with ELISA buffer) per well was added and incubated at room temperature for 30 minutes. The wells were washed again with PBS—0.05% Tween20 at least five times.
(In general: An ELISA detects its analyte on a solid surface through an enzyme-linked reagent.)

For data set [2], the target named is B5. Briefly: solution competition phage ELISA (762 S/F): short form coated, phage pre-incubated with full length STOP-1 in solution; IC50 is the STOP-1 concentration. The method, then: as §1, §2
In data set [3] the target is B5. Briefly: solution competition phage ELISA (762 F/F): full length coated, phage pre-incubated with full length STOP-1 in solution; IC50 is the STOP-1 concentration. The method, then:
as §1, §2

Data set [4] addresses B5. Briefly: blocking ELISA, legend of FIG. 22. The method, then:
First, 96-well Nunc Maxisorp plates were coated with full length human STOP-1 (2 ug/ml in PBS) at 4° C. overnight or at room temperature for 2 hours. The wells were blocked by adding 65 ul 1% BSA for 30 minutes followed by 40 ul 1% Tween20 for another 30 minutes. Next, the wells were washed with PBS—0.05% Tween20 5 times. Various concentrations of S4 IgG (in ELISA buffer) were incubated in the wells for 30 minutes at room temperature. Then, S4 (Fab)-phage, S7 (F(ab)′₂)-phage, S9 (Fab)-phage, S16 (F(ab)′₂)-phage or F5 (F(ab)′₂)-phage were added to different wells for 10 minutes at a concentration that would normally produce 90% binding capacity in the absence of the S4 IgG antibody. The wells were washed with PBS—0.05% Tween20 5 times.
Binding was quantified by adding 75 ul/well of horse radish peroxidase (HRP)-conjugated anti-M13 antibody in PBS plus 0.5% BSA and 0.05% Tween20 at room temperature for 30 minutes (Sidhu et al., supra). […] Next, 100 ul/well of a 1:1 ratio of 3,3′,5,5′-tetramethylbenzidine (TMB) Peroxidase substrate and Peroxidase Solution B (H₂O₂) ((Kirkegaard-Perry Laboratories (Gaithersburg, Md.)) was added to the well. The reaction was stopped by adding 100 ul 1M Phosphoric Acid (H₃PO₄) ((Kirkegaard-Perry Laboratories (Gaithersburg, Md.)) to each well. The OD of the yellow color in each well was determined using a standard ELISA plate reader at 450 nm.

Data set [5] deals with the molecule itself. Briefly: self-association; size exclusion chromatography with light scattering. The method, then: Full length STOP-1-HIS proteins or various truncations thereof were expressed in SF9 baculovirus-infected cells or CHO cells as described above. The proteins were purified from the media by using Ni-NTA agarose beads as discussed above. The baculoviral-expressed proteins S31-K243-His, E89-K243-His, or L94-K243-His were loaded onto an 8 mm×300 mm Shodex KW802.5 size exclusion column and eluted with 100 mM NH₄HCO₃, 200 mM NH₄Cl pH7.8 at a flow rate of 1 ml/ml. CHO-psgb expressed full length proteins were loaded onto an 8 mm×300 mm Shodex KW804 size exclusion column and eluted with 25 mM sodium phosphate, 500 mM NaCl at a flow rate of 1 ml/ml. CHO-psgb expressed proteins, M1-M54 fused to L94-K243-His, were loaded onto an 8 mm×300 mm Shodex KW802.5 size exclusion column and eluted with 25 mM sodium phosphate, 500 mM NaCl at a flow rate of 1 ml/ml.
The eluted protein was analyzed by an Agilent Model 1100 HPLC system with an Agilent multi wavelength detector (UV) connected to a Wyatt MiniDAWN laser light scattering (LS) instrument and a Wyatt Optilab differential refractometer (RI). The average molecular weight of the proteins or their aggregates in each peak was determined by selecting a peak and using the Zimm fitting method (Phillip J. Wyatt, (1993) Analytica Chimica Acta 272:1-40) with the Astra software package (Wyatt, USA). The percentage of aggregation was calculated from the integrated peak areas of the UV signal at 214 nm. See FIG. 6 and FIG. 7 for results.
A general note: Size exclusion chromatography separates by hydrodynamic size, large species first.

For data set [6], the target named is B6. Briefly: solution competition phage ELISA (762 S/S), short form coated and short form as competitor; ND = not detectable. The method, then: as §1
Third, a competition ELISA was performed. 96-well Nunc Maxisorp plates were coated with full length or short form human STOP-1 (2 ug/ml in PBS) at 4° C. overnight or at room temperature for 2 hours. […]

Usually IC50 stands for the concentration that inhibits the measured activity by half. Read a high IC50 as a need for much substance. For B1, the IC50 in data set [1] stood at 3 nM; in data set [2] it was 719 nM; in data set [3], 0.9 nM. For B2, the binding result in data set [4] is listed as “binds”. With B3, in data set [5], the binding result is “binds”.

With B4, the binding result in data set [5] is “binds”. On the same count and under the same terms, the entry for B5 is “binds”; for B6 it is “binds”; for B7 it is “binds”. In the case of B8, the values for the 50% inhibitory concentration (IC50) in data set [1] and in data set [2] were above 1000 nM and 331 nM, respectively.

As for B9, the figures for the half-maximal inhibitory concentration (IC50) in data set [1], in data set [2] and in data set [3] were 35 nM, 4.7 nM and 2.7 nM, respectively. As to B10, the figures for the half-inhibitory concentration (IC50) in data set [1] and in data set [3] were 114 nM and 32 nM, respectively. Regarding B11, the binding result in data set [6] is reported as “no binding (tested: 0.1 to 500 nM competitor)”. The IC50 in data set [2] turned out to be 1000 nM.

The record behind these values is patent US20110112279A1 (Genentech, published 2011).
